Experimental findings from IntAct's records for PubMed 31515488 are described below.

The labels stand for the following.
B1: Isoform 1 of Mothers against decapentaplegic homolog 3 (Homo sapiens), P84022-1 (parent)
chain: MSSILPFTPPIVKRLLGWKKGEQNGQEEKWCEKAVKSLVKKLKKTGQLDELEKAITTQNVNTKCITIPRSLDGRLQVSHRKGLPHVIYCRLWRWPDLHSHHELRAMELCEFAFNMKKDEVCVNPYHYQRVETPVLPPVLVPRHTEIPAEFPPLDDYSHSIPENTNFPAGIEPQSNIPETPPPGYLSEDGETSDHQMNHSMDAGSPNLSPNPMSPAHNNLDLQPVTYCEPAFWCSISYYELNQRVGETFHASQPSMTVDGFTDPSNSERFCLGLLSNVNRNAAVELTRRHIGRGVRLYYIGGEVFAECLSDSAIFVQSPNCNQRYGWHPATVCKIPPGCNLKIFNNQEFAALLAQSVNQGFEAVYQLTRMCTIRMSFVKGWGAEYRRQTVTSTPCWIELHLNGPLQWLDKVLTQMGSPSIRCSSVS
partner: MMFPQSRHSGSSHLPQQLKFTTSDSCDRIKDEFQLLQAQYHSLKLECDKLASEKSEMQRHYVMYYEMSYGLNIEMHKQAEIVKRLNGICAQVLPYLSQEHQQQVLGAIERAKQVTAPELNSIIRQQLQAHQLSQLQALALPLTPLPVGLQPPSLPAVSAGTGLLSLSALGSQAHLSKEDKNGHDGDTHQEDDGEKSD
B2: Zinc finger protein 165 (Homo sapiens), P49910 (parent)
chain: MATEPKKAAAQNSPEDEGLLIVKIEEEEFIHGQDTCLQRSELLKQELCRQLFRQFCYQDSPGPREALSRLRELCCQWLKPEIHTKEQILELLVLEQFLTILPGDLQAWVHEHYPESGEEAVTILEDLERGTDEAVLQVQAHEHGQEIFQKKVSPPGPALNVKLQPVETKAHFDSSEPQLLWDCDNESENSRSMPKLEIFEKIESQRIISGRISGYISEASGESQDICKSAGRVKRQWEKESGESQRLSSAQDEGFGKILTHKNTVRGEIISHDGCERRLNLNSNEFTHQKSCKHGTCDQSFKWNSDFINHQIIYAGEKNHQYGKSFKSPKLAKHAAVFSGDKTHQCNECGKAFRHSSKLARHQRIHTGERCYECNECGKSFAESSDLTRHRRIHTGERPFGCKECGRAFNLNSHLIRHQRIHTREKPYECSECGKTFRVSSHLIRHFRIHTGEKPYECSECGRAFSQSSNLSQHQRIHMRENLLM
B3: Microtubule-associated tumor suppressor candidate 2 (Homo sapiens), Q5JR59-3 (parent)
chain: MGHCCCKPYNCLQCLDKTNESALVKEKELSIELANIRDEVAFHTAKCEKLQKEKEELERRFEDEVKRLGWQQQAELQELEERLQLQFEAEMARLQEEHGDQLLSIRCQHQEQVEDLTASHDAALLEMENNHTVAITILQDDHDHKVQELMSTHELEKKELEENFEKLRLSLQDQVDTLTFQSQSLRDRARRFEEALRKNTEEQLEIALAPYQHLEEDMKSLKQVLEMKNQQIHEQEKKILELEKLAEKNIILEEKIQVLQQQNEDLKARIDQNTVVTRQLSEENANLQEYVEKETQEKKRLSRTNEELLWKLQTGDPTSPIKLSPTSPVYRGSSSGPSSPARVSTTPR
partner: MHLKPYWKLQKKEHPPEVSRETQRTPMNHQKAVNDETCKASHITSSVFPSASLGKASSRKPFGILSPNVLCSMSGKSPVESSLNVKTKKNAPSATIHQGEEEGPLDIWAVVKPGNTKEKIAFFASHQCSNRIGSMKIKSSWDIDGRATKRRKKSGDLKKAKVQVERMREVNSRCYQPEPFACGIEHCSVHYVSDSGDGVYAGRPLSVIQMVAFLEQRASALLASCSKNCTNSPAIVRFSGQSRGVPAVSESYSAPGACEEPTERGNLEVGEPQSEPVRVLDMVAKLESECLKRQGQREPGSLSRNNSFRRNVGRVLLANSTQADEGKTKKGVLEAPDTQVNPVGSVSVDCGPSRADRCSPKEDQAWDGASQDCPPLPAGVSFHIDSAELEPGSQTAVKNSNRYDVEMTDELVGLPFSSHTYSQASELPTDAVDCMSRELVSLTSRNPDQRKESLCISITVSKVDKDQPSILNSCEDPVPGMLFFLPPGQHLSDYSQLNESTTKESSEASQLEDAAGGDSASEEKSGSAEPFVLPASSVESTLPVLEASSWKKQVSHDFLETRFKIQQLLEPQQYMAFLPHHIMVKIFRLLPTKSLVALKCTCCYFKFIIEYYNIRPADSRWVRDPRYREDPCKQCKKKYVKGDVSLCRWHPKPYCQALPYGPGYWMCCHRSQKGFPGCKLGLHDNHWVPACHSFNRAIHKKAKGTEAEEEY
B4: Dynein light chain 2, cytoplasmic (Homo sapiens), Q96FJ2 (parent)
chain: MSDRKAVIKNADMSEDMQQDAVDCATQAMEKYNIEKDIAAYIKKEFDKKYNPTWHCIVGRNFGSYVTHETKHFIYFYLGQVAILLFKSG
partner: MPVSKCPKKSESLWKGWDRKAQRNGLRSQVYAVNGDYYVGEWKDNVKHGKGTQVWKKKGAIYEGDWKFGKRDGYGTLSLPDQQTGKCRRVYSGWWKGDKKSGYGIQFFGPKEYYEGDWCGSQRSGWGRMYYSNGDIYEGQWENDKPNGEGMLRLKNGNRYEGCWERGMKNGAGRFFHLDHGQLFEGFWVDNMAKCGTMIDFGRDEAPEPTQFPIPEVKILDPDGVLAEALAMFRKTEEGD

In the first assay the parent is B1. As to conditions: with tle5_human TLE5, Q08117.
Take P393L: the “effect of a mutation on the interaction” value is reported as “disrupting interaction strength”.

Another assay covers variants of B1. The settings on record: with tle5_human TLE5, Q08117. This is another data set of the same source.
With I170V, the “effect of a mutation on the interaction” value is reported as “with no effect”.

In the next assay the parent is B2. As to conditions: with kat7_human KAT7, O95251.
kat7_human KAT7, O95251, sequence (O95251 whole entry): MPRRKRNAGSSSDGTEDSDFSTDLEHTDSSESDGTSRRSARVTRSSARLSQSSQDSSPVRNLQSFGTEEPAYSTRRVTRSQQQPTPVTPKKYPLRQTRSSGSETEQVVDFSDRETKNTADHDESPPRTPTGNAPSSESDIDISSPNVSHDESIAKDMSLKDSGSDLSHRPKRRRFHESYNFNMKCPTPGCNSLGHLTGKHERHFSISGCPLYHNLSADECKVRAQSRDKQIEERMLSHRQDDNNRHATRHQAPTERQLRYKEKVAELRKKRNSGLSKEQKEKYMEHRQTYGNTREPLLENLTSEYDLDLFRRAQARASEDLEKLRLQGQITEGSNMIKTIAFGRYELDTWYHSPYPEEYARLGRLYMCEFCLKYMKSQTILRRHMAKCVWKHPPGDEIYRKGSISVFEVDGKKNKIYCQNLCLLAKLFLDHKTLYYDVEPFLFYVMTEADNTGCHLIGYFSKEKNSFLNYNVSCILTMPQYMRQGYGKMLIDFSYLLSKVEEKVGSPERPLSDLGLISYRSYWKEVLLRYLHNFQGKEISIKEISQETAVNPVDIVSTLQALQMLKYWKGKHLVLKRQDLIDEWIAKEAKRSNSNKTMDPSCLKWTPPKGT
Take N347Y: the “effect of a mutation on the interaction” value is given as “with no effect”.
On the same count and under the same terms, the same measure for R69C: “with no effect”.

In another assay the parent is B2. The settings on record: with pdli7_human PDLIM7, Q9NR12.
pdli7_human PDLIM7, Q9NR12, sequence (Q9NR12 whole entry): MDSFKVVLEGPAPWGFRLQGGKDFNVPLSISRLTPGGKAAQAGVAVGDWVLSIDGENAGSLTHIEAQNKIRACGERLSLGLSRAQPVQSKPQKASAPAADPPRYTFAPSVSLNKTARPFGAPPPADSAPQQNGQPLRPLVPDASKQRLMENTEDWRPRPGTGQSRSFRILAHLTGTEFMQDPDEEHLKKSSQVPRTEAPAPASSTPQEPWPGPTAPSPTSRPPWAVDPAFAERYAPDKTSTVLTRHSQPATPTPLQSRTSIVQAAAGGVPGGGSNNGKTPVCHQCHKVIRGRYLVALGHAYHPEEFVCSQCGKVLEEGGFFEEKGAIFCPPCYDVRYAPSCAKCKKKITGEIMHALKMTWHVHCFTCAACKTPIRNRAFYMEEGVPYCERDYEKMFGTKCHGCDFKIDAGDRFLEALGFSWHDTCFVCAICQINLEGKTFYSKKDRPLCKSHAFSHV
Turning to N347Y, the “effect of a mutation on the interaction” value is “with no effect”.
The same measure, in the same setting: under R69C stands “with no effect”.

In a further assay the parent is B2. The settings on record: with trim1_human MID2, Q9UJV3.
trim1_human MID2, Q9UJV3, sequence (Q9UJV3 whole entry): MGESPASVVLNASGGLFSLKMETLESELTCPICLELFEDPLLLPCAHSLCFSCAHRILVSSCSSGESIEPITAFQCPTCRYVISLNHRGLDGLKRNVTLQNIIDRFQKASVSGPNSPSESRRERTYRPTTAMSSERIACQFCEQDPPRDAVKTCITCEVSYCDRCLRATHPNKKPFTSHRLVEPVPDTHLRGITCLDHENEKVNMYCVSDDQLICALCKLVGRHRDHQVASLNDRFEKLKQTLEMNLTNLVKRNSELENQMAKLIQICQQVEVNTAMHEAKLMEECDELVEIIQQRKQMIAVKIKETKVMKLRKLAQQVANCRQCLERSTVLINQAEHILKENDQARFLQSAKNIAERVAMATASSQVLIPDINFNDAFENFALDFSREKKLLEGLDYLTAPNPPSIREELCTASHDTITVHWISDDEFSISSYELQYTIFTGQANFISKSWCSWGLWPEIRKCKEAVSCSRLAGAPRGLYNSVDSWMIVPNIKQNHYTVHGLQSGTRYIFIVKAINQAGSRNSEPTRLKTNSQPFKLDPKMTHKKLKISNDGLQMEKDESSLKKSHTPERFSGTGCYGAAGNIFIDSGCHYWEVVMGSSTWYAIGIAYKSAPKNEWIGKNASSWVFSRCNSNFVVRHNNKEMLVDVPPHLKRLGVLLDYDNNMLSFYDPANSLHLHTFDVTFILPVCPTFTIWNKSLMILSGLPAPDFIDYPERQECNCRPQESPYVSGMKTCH
Regarding N347Y, the “effect of a mutation on the interaction” value is “with no effect”.
For R69C, the “effect of a mutation on the interaction” value is on record as “with no effect”.

Variants of B2 are the subject of another assay. The settings on record: with zn446_human ZNF446, Q9NWS9.
zn446_human ZNF446, Q9NWS9, sequence (Q9NWS9 whole entry): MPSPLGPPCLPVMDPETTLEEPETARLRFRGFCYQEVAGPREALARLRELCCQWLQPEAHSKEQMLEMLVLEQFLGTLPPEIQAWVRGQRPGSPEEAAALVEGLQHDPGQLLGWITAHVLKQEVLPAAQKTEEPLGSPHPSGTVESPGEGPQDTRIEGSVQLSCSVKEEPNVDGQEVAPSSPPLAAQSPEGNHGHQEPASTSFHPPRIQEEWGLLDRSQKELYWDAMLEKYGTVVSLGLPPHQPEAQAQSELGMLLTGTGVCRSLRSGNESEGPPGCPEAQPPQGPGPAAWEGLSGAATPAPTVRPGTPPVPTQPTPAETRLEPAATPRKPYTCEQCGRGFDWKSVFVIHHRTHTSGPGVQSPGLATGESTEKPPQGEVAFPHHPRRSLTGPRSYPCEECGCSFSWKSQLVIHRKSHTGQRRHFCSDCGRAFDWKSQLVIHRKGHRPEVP
For N347Y, the “effect of a mutation on the interaction” value is “with no effect”.
The same measure, in the same setting: under R69C stands “with no effect”.

A further assay covers variants of B3. As to conditions: with fbx34_human FBXO34, Q9NWN3.
On to A89V, for which the “effect of a mutation on the interaction” value was “with no effect”.

Variants of B4 are the subject of the next assay. As to conditions: with morn3_human MORN3, Q6PF18.
Consider N33S, for which the “effect of a mutation on the interaction” value was “with no effect”.
